The results in this text go back to PMC5141497, “NMR studies on the interactions between yeast Vta1 and Did2 during the multivesicular bodies sorting pathway” (Scientific Reports, 2016).

In this experiment the target is T1, Vta1 N-terminal domain (residues 1–167) (S. cerevisiae, UniProt Q06263 1-167).
T1 construct: Vta1, S. cerevisiae, N-terminal domain with two tandem MIT domains, residues 1-167; Isotope labelled (15N, 13C, 70% 2H) or unlabelled, depending on the NMR sample; also called Vta1NTD; WT Vta1NTD; source: E. coli BL21(DE3), purified (Ni-NTA, ULP1 cleavage, second Ni-NTA, Resource Q); not shown: His6, N-terminal, cleaved; SUMO, N-terminal, cleaved
T1 sequence (looked up): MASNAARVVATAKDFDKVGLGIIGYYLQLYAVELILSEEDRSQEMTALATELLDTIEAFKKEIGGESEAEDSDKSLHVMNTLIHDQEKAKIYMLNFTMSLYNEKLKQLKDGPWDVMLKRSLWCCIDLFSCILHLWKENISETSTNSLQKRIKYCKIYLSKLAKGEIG
Put plainly: ITC; about 0.1 mM Vta1NTD titrated with 2.0 mM Did2_(176–204) peptide, iTC-200, 25 °C, 25 mM sodium phosphate pH 7.0, 50 mM NaCl, one set of sites model. Particulars: both partners purified. A general note: Isothermal titration calorimetry measures the heat released or taken up as one component is titrated into another.

B1: Did2 fragment (176–204 aa) (peptide)
chain: WNVPEIKAKEVNVDDEKEDKLAQRLRALRG
notes: extra tryptophan inserted at the N-terminus of the peptide to estimate its concentration; Natural stretch with one added N-terminal Trp; Isotope labelled (15N, 13C) or unlabelled, depending on the NMR sample; source: E. coli BL21(DE3), purified (Ni-NTA, Resource Q, ULP1 cleavage, Superdex 75), lyophilized; not shown: His6, N-terminal, cleaved; SUMO, N-terminal, cleaved
As a reminder, the Kd is the free concentration of one partner at which half of the binding sites on the other are occupied at equilibrium, for simple one-to-one binding. A high value points to a looser complex. As usually defined, the stoichiometry N is the number of molecules, sites or subunits per partner or assembly. Turning to B1, the affinity, expressed as Kd, was 12.8 ± 1 µM; the dH was -2.7 kcal/mol; the “stoichiometry N” value came out at 1.16 ± 0.0266.
